The supplement of paper PMC10567573

B1: SPATS1 (parent)
chain: GRKKYDIDPRNGIPKLTPGDNPYM

Variants of: B1
Assay: protein stability index of a GFP-peptide fusion (GPS, HEK-293T) (PSI 1-6); higher = more stable
Settings: c terminus: a fixed tail appended
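Further: lentivirally expressed fusions sorted by FACS into six bins by GFP to DsRed ratio, PSI derived from sequencing read proportions per bin multiplied by bin number.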

Variant	protein stability index
GRKKYQIDPRNGIPKLTPGDNPYM [D6Q]	2.94
GRKKYPIDPRNGIPKLTPGDNPYM [D6P]	3.49
GRKKYKIDPRNGIPKLTPGDNPYM [D6K]	3.33
GRKKYEIDPRNGIPKLTPGDNPYM [D6E]	3.4
GRKKYMIDPRNGIPKLTPGDNPYM [D6M]	3.01
GRKKYTIDPRNGIPKLTPGDNPYM [D6T]	3.16
GRKKYYIDPRNGIPKLTPGDNPYM [D6Y]	3.12
GRKKYFIDPRNGIPKLTPGDNPYM [D6F]	2.51
GRKKYNIDPRNGIPKLTPGDNPYM [D6N]	3.36
GRKKYGIDPRNGIPKLTPGDNPYM [D6G]	3.51
GRKKYSIDPRNGIPKLTPGDNPYM [D6S]	3.4
GRKKYVIDPRNGIPKLTPGDNPYM [D6V]	2.52
GRKKYLIDPRNGIPKLTPGDNPYM [D6L]	2.84
GRKKYIIDPRNGIPKLTPGDNPYM [D6I]	2.57
GRKKYWIDPRNGIPKLTPGDNPYM [D6W]	2.38
GRKKYRIDPRNGIPKLTPGDNPYM [D6R]	3.11
GRKKYHIDPRNGIPKLTPGDNPYM [D6H]	3.35
GRKKYDIDPRNGIPGLTPGDNPYM [K15G]	2.81
GRKKYDIDPRNGIPMLTPGDNPYM [K15M]	3.69
GRKKYDIDPRNGIPLLTPGDNPYM [K15L]	3.29
GRKKYDIDPRNGIPILTPGDNPYM [K15I]	3.69
GRKKYDIDPRNGIPWLTPGDNPYM [K15W]	1.98
GRKKYDIDPRNGIPYLTPGDNPYM [K15Y]	2.96
GRKKYDIDPRNGIPCLTPGDNPYM [K15C]	3.04

Variant	protein stability index
GRKKYDIDPRNGIPALTPGDNPYM [K15A]	3.64
GRKKYDIDPRNGIPNLTPGDNPYM [K15N]	3.49
GRKKYDIDPRNGIPSLTPGDNPYM [K15S]	3.69
GRKKYDIDPRNGIPTLTPGDNPYM [K15T]	3.78
GRKKYDIDPRNGIPQLTPGDNPYM [K15Q]	4.05
GRKKYDIDPRNGIPDLTPGDNPYM [K15D]	3.88
GRKKYDIDPRNGIPHLTPGDNPYM [K15H]	3.55
GRKKYDIDPRNGIPFLTPGDNPYM [K15F]	2.97
GRKKYDIDPRNGIPELTPGDNPYM [K15E]	4.33
GRKKYDIDPRNGIPPLTPGDNPYM [K15P]	3.62
GRKKYDIDPRNGIPVLTPGDNPYM [K15V]	3.29
GRKKYDIDPRNGIPRLTPGDNPYM [K15R]	3.63
GRKKYDIDPRNGILKLTPGDNPYM [P14L]	2.94
GRKKYDIDPRNGIQKLTPGDNPYM [P14Q]	3.42
GRKKYDIDPRNGIYKLTPGDNPYM [P14Y]	3.03
GRKKYDIDPRNGIEKLTPGDNPYM [P14E]	4.16
GRKKYDIDPRNGIAKLTPGDNPYM [P14A]	3.52
GRKKYDIDPRNGIFKLTPGDNPYM [P14F]	2.4
GRKKYDIDPRNGISKLTPGDNPYM [P14S]	3.3
GRKKYDIDPRNGIIKLTPGDNPYM [P14I]	2.96
GRKKYDIDPRNGIKKLTPGDNPYM [P14K]	3.44
GRKKYDIDPRNGICKLTPGDNPYM [P14C]	2.95
GRKKYDIDPRNGIRKLTPGDNPYM [P14R]	2.99
GRKKYDIDPRNGIMKLTPGDNPYM [P14M]	3.05

Variant	protein stability index
GRKKYDIDPRNGIGKLTPGDNPYM [P14G]	3.38
GRKKYDIDPRNGITKLTPGDNPYM [P14T]	3.27
GRKKYDIDPRNGINKLTPGDNPYM [P14N]	3.55
GRKKYDIDPRNGIVKLTPGDNPYM [P14V]	3.36
GRKKYDIDPRNGIWKLTPGDNPYM [P14W]	2.9
GRKKYDIDPRNGIHKLTPGDNPYM [P14H]	3.51
GRKKYDIDPRNGIDKLTPGDNPYM [P14D]	3.66
GRKKYDIDWRNGIPKLTPGDNPYM [P9W]	2.52
GRKKYDIDHRNGIPKLTPGDNPYM [P9H]	3.79
GRKKYDIDQRNGIPKLTPGDNPYM [P9Q]	3.67
GRKKYDIDIRNGIPKLTPGDNPYM [P9I]	3.69
GRKKYDIDDRNGIPKLTPGDNPYM [P9D]	3.99
GRKKYDIDRRNGIPKLTPGDNPYM [P9R]	3.74
GRKKYDIDYRNGIPKLTPGDNPYM [P9Y]	2.99
GRKKYDIDMRNGIPKLTPGDNPYM [P9M]	3.28
GRKKYDIDTRNGIPKLTPGDNPYM [P9T]	3.62
GRKKYDIDARNGIPKLTPGDNPYM [P9A]	3.44
GRKKYDIDNRNGIPKLTPGDNPYM [P9N]	3.49
GRKKYDIDERNGIPKLTPGDNPYM [P9E]	4.19
GRKKYDIDLRNGIPKLTPGDNPYM [P9L]	3.24
GRKKYDIDFRNGIPKLTPGDNPYM [P9F]	2.8
GRKKYDIDVRNGIPKLTPGDNPYM [P9V]	3.36
GRKKYDIDCRNGIPKLTPGDNPYM [P9C]	3.72
GRKKYDIDGRNGIPKLTPGDNPYM [P9G]	3.52

Variant	protein stability index
GRKKYDIDSRNGIPKLTPGDNPYM [P9S]	3.85
GRKKYDIDKRNGIPKLTPGDNPYM [P9K]	3.27
GRKKYDIDPRQGIPKLTPGDNPYM [N11Q]	3.41
GRKKYDIDPRGGIPKLTPGDNPYM [N11G]	3.53
GRKKYDIDPRWGIPKLTPGDNPYM [N11W]	2.48
GRKKYDIDPREGIPKLTPGDNPYM [N11E]	3.82
GRKKYDIDPRPGIPKLTPGDNPYM [N11P]	3.8
GRKKYDIDPRIGIPKLTPGDNPYM [N11I]	3.22
GRKKYDIDPRLGIPKLTPGDNPYM [N11L]	3.06
GRKKYDIDPRVGIPKLTPGDNPYM [N11V]	3.28
GRKKYDIDPRDGIPKLTPGDNPYM [N11D]	3.87
GRKKYDIDPRCGIPKLTPGDNPYM [N11C]	2.77
GRKKYDIDPRTGIPKLTPGDNPYM [N11T]	3.46
GRKKYDIDPRMGIPKLTPGDNPYM [N11M]	3.17
GRKKYDIDPRHGIPKLTPGDNPYM [N11H]	3.54
GRKKYDIDPRYGIPKLTPGDNPYM [N11Y]	4.13
GRKKYDIDPRRGIPKLTPGDNPYM [N11R]	3.28
GRKKYDIDPRAGIPKLTPGDNPYM [N11A]	3.05
GRKKYDIDPRKGIPKLTPGDNPYM [N11K]	3.59
GRKKYDIDPRFGIPKLTPGDNPYM [N11F]	3.34
GRKKYDIDPRSGIPKLTPGDNPYM [N11S]	3.6
GRKKYDIDPRNQIPKLTPGDNPYM [G12Q]	3.72
